From patent US6617497B1, “Cytokinin oxidase” (The Curators of the University of Missouri, priority 1997, dated 2003)

Target: T1, cytokinin oxidase activity (Zea mays, UniProt Q9T0N8)
T1 construct: The exon fusion (containing ckx1 and including its putative signal peptide) was ligated into the Pml1/BsmB1 restriction sites of pPICZ-A; made in house; host or cells: Pichia pastoris X33 (transformant PPckx1, plasmid pROM24); activity measured in the culture supernatant
Assay: Cytokinin oxidase activity of ckx1 expressed in Pichia pastoris
Format: biochemical
Excerpt: Two assays were used to screen purification steps for cytokinin oxidase activity. The first was the Schiff base formation assay measuring the production of dimethylallylaldehyde from iP, as described by Liberos-Minotta (1995), which was used up through the DEAE column step. A second assay, developed by the applicant, was used in the remaining purification steps. In this assay, the transfer of reducing equivalents from isopentenyladenine to dichlorophenolindophenol (DCPIP), catalyzed by ckx1, allows the observance of reactivity by measuring absorbance change at 590 nm. In a final volume of 250 μl, the assay contains: 100 mM Phosphate buffer, pH 7.0; 1.0 mM EDTA; 0.05 mM DCPIP; 0.1 mM iP; 100 μg/ml BSA; and the sample tested. After the addition of the enzyme, absorbance change is read at 590 nm for 10 minutes.
Removal of the right-most intron was accomplished by splicing by overlap extension (Horton et al., 1989) and for the left-most intron by ligation of suitable restriction fragments. The resulting intronless cassette was inserted into the Pichia expression vector pPICZ-A to give the expression construct pROM24 (FIG. 9). This construct was introduced into the requisite Pichia host and grown in the presence of methanol to induce ckx1 expression. Appropriate control Pichia lines (containing. the vector alone or a recombinant expressing human serum albumin) were grown in parallel. […]

T1 sequence (Q9T0N8 19-534): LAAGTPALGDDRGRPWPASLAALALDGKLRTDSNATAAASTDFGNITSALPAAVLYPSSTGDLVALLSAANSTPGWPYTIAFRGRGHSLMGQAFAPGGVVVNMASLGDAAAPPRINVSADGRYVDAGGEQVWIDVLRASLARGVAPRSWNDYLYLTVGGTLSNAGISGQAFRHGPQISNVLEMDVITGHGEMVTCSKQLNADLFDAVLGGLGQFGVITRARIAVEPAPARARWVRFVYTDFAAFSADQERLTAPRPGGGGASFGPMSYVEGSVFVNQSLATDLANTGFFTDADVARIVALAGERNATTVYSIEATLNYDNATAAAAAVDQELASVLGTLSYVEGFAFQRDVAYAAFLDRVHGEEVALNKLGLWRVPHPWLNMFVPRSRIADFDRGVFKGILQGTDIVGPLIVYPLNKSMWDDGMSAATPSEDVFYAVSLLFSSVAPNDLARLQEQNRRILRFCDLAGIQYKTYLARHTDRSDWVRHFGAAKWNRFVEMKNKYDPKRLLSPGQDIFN

B1: ckx1: purified plant cytokinin oxidizing enzyme from Zea mays (SEQ. ID NO. 1); here expressed recombinantly in Pichia pastoris (protein)
chain: MAVVYYLLLAGLIACSHALAAGTPALGDDRGRPWPASLAALALDGKLRTDSNATAAASTDFGNITSALPAAVLYPSSTGDLVALLSAANSTPGWPYTIAFRGRGHSLMGQAFAPGGVVVNMASLGDAAAPPGINVSADGRYVDAGGEQVWIDVLRASLARGVAPRSWNDYLYLTVGGTLSNAGISGQAFRHGPQISNVLEMDVITGHGEMVTCSKQLNADLFDAVLGGLGQFGVITRARIAVEPAPARARWVRFVYTDFAAFSADQERLTAPRPGGGGASFGPMSYVEGSVFVNQSLATDLANTGFFTDADVARIVALAGERNATTVYSIEATLNYDNATAAAAAVDQELASVLGTLSYVEGFAFQRDVAYAAFLDRVHGEEVALNKLGLWRVPHPWLNMFVPRSRIADFDRGVFKGILQGTDIVGPLIVYPLNKSMWDDGMSAATPSEDVFYAVSLLFSSVAPNDLARLQEQNRRILRFCDLAGIQYKTYLARHTDRSDWVRHFGAAKWNRFVEMKNKYDPKRLLSPGQDIFN
modifications: Zea mays
notes: here expressed recombinantly in Pichia pastoris
- cytokinin oxidase activity in cell lysates (Pichia cell lysates, at any time during the growth curve): No cytokinin oxidase activity
- cytokinin oxidase activity in growth medium (Pichia culture supernatant, methanol induction): high levels of cytokinin oxidase activity
